Experimental data: US20200157236A1 (CELLDEX THERAPEUTICS, published 2020)
Where a chain is given by its changes, count along the chain named.

B1: Ab417 (antibody, V domains shown)
VH: EVQLVQSGAEVAKPGASVKLSCKASGYTFTSYWMHWVRQAPGQGLEWIGYIKPSSGYTKYNQKFKDKATLTADKSTSTAYMELRSLRSDDTAVYYCARDYYGSSSWFAYWGQGTLVTVSS
VL: EIVMTQSQATLSTSPGERATLSCKASQNVGTNVAWYQQKPGQAPRALIYSASYRYSGVPARFSGSGSGTDFTLTISSVEPEDFAVYYCQQYNSYPYMYTFGQGTKLEIK
notes: humanized
B2: Ab434 (antibody, V domains shown)
VH: EVQLVQSGAEVKKPGSSVKLSCKASGYTFSSYWMHWVKQAPGQGLEWIGYIKPSSGYTKYAQKFQGRVTLTADKSTSTAYMELSSLRSEDTAVYYCARDYYGSSSWFAYWGQGTLVTVSS
VL: B1 VL with Q8P, K24R, N28S, G30S, T31S, V33L
notes: humanized
B3: Ab446 (antibody, V domains shown)
VH: B2 VH
VL: B1 VL with L11M, P15V, A43S, R45K, S50G, Y53T, Y55A, S56T
notes: humanized
B4: Ab436 (antibody, V domains shown)
VH: B1 VH with A9P, A12K, A16T, P41R, G44R, K67R, R84S, D89E
VL: B1 VL with L11M, P15V, A43S, R45K, S50G, Y53T, Y55A, S56T
notes: humanized
B5: Ab438 (antibody, V domains shown)
VH: B2 VH with S16T, S30T, K38R, P41R, G44R, G66E
VL: B1 VL with L11M, P15V, A43S, R45K, S50G, Y53T, Y55A, S56T
notes: humanized
B6: Ab406 (antibody, V domains shown)
VH: B2 VH with S16A, S30T, K38R, F64L, S84R, E89D
VL: B1 VL with L11M, P15V, A43S, R45K
notes: humanized
B7: Ab439 (antibody, V domains shown)
VH: B1 VH with E1Q, R38K
VL: B1 VL with L11M, P15V, A43S, R45K, S50G, Y53T, Y55A, S56T
notes: humanized
B8: Ab430 (antibody, V domains shown)
VH: B2 VH with S16A, S30T, K38R, F64L, S84R, E89D
VL: B1 VL with Q8P, K24R, N28S, G30S, T31S, V33L
notes: humanized
B9: Ab442 (antibody, V domains shown)
VH: B2 VH with S16A, S30T, K38R, F64L, S84R, E89D
VL: B1 VL with L11M, P15V, A43S, R45K, S50G, Y53T, Y55A, S56T
notes: humanized
B10: Ab435 (antibody, V domains shown)
VH: B1 VH with E1Q, A16T, R38K, A68V, R84S, D89E
VL: B1 VL with L11M, P15V, A43S, R45K, S50G, Y53T, Y55A, S56T
notes: humanized
B11: Ab426 (antibody, V domains shown)
VH: B2 VH with S16T, S30T, K38R, P41R, G44R, G66E
VL: B1 VL with Q8P, K24R, N28S, G30S, T31S, V33L
notes: humanized
B12: Ab422 (antibody, V domains shown)
VH: B2 VH
VL: B1 VL
notes: humanized
B13: Ab443 (antibody, V domains shown)
VH: B1 VH with E1Q, A16S, R38K, R84S, D89E
VL: B1 VL with L11M, P15V, A43S, R45K, S50G, Y53T, Y55A, S56T
notes: humanized
B14: Ab432 (antibody, V domains shown)
VH: B1 VH with A12K, A16S, R84S, D89E
VL: B1 VL with Q8P, K24R, N28S, G30S, T31S, V33L
notes: humanized
B15: Ab428 (antibody, V domains shown)
VH: B1 VH with A12K
VL: B1 VL with Q8P, K24R, N28S, G30S, T31S, V33L
notes: humanized
B16: Ab433 (antibody, V domains shown)
VH: B1 VH with A12K, A16S, L20V, T30S, R84S, D89E
VL: B1 VL with Q8P, K24R, N28S, G30S, T31S, V33L
notes: humanized
B17: Ab419 (antibody, V domains shown)
VH: B1 VH with E1Q, A16S, R38K, R84S, D89E
VL: B1 VL
notes: humanized
B18: Ab424 (antibody, V domains shown)
VH: B1 VH with A9P, A12K, A16T, P41R, G44R, K67R, R84S, D89E
VL: B1 VL with Q8P, K24R, N28S, G30S, T31S, V33L
notes: humanized
B19: Ab429 (antibody, V domains shown)
VH: B1 VH
VL: B1 VL with Q8P, K24R, N28S, G30S, T31S, V33L
notes: humanized
B20: Ab425 (antibody, V domains shown)
VH: B1 VH with A12K, A16T, Y32S, W33A, H35Q, R38K, R84S, D89E
VL: B1 VL with Q8P, K24R, N28S, G30S, T31S, V33L
notes: humanized
B21: Ab440 (antibody, V domains shown)
VH: B1 VH with A12K
VL: B1 VL with L11M, P15V, A43S, R45K, S50G, Y53T, Y55A, S56T
notes: humanized
B22: Ab427 (antibody, V domains shown)
VH: B1 VH with E1Q, R38K
VL: B1 VL with Q8P, K24R, N28S, G30S, T31S, V33L
notes: humanized
B23: Ab421 (antibody, V domains shown)
VH: B1 VH with A12K, A16S, L20V, T30S, R84S, D89E
VL: B1 VL
notes: humanized
B24: Ab444 (antibody, V domains shown)
VH: B1 VH with A12K, A16S, R84S, D89E
VL: B1 VL with L11M, P15V, A43S, R45K, S50G, Y53T, Y55A, S56T
notes: humanized
B25: Ab431 (antibody, V domains shown)
VH: B1 VH with E1Q, A16S, R38K, R84S, D89E
VL: B1 VL with Q8P, K24R, N28S, G30S, T31S, V33L
notes: humanized
B26: Ab418 (antibody, V domains shown)
VH: B2 VH with S16A, S30T, K38R, F64L, S84R, E89D
VL: B1 VL
notes: humanized
B27: Ab441 (antibody, V domains shown)
VH: B1 VH
VL: B1 VL with L11M, P15V, A43S, R45K, S50G, Y53T, Y55A, S56T
notes: humanized
B28: Ab423 (antibody, V domains shown)
VH: B1 VH with E1Q, A16T, R38K, A68V, R84S, D89E
VL: B1 VL with Q8P, K24R, N28S, G30S, T31S, V33L
notes: humanized
B29: Ab445 (antibody, V domains shown)
VH: B1 VH with A12K, A16S, L20V, T30S, R84S, D89E
VL: B1 VL with L11M, P15V, A43S, R45K, S50G, Y53T, Y55A, S56T
notes: humanized

molecular target: T1, purified ALK protein (BLitz, Table 20) (Homo sapiens (Human), UniProt Q9UM73 19-1038, limits assumed); test: BLI (BLitz), mAb on Protein A tip, purified ALK in solution
T1 construct: also called purified ALK proteins
T1 sequence (Q9UM73 19-1038 limits assumed): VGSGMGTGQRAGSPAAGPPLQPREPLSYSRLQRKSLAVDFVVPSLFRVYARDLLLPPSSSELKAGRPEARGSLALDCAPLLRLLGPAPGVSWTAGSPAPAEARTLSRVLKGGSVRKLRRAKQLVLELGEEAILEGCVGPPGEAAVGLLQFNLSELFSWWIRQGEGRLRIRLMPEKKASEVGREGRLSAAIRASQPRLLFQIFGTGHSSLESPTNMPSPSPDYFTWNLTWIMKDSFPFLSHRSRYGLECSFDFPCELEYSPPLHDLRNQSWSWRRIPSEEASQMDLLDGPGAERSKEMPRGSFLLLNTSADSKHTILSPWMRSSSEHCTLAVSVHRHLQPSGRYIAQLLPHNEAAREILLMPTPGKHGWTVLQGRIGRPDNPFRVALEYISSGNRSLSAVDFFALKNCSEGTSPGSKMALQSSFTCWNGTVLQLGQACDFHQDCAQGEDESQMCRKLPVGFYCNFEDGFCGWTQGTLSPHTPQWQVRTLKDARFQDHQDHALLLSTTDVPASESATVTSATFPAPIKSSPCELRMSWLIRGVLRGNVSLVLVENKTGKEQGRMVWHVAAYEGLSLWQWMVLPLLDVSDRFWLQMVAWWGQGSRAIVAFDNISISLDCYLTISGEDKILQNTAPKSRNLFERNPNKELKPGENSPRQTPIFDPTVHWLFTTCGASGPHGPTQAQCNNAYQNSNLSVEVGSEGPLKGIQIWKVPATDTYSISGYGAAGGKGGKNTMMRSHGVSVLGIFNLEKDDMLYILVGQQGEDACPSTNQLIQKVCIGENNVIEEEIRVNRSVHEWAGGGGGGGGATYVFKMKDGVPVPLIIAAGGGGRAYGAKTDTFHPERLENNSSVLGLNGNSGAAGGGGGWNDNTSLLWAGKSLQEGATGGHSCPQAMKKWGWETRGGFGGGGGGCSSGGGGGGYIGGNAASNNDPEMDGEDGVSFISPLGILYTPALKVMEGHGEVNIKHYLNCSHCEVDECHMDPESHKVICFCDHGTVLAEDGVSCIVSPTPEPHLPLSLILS
Experimental: Kinetic measurements of the monovalent affinity of the 96 humanized ALK antibody variants (Ab351-Ab446) were collected. Affinity ranking was performed using a BLitz® System (ForteBio, Menlo Park, Calif.). Humanized anti-ALK antibodies were immobilized at 0.5 mg/mL using Protein A tips. Once baseline stability was ensured, purified ALK proteins at 70 μg/mL were added. The resulting kinetic data were fit to a single binding site equation, from which the quoted monovalent KD values were derived.

Compared with B1, B2 is 1.9-fold higher in Kd: 170 nM for the first, 329 nM for the second.

First: B3
Second: B4
The Kd of the first is 3.3-fold higher: 393 nM for the first, 120 nM for the second. The second binds more tightly here.

Going from B5 to B6, the Kd falls from 310 nM to 110 nM (2.8-fold). The second binds more tightly here.

First: B7
Second: B8
The Kd of the first is 1.5-fold lower: 138 nM for the first, 211 nM for the second.

B9 and B10 are within 1.5-fold of each other in Kd: 219 nM for the first, 317 nM for the second.

Compared with B11, B12 is 5-fold lower in Kd: 868 nM for the first, 173 nM for the second. The second binds more tightly here.

First: B13
Second: B14
The Kd of the first is 2.3-fold lower: 145 nM for the first, 337 nM for the second. The first binds more tightly here.

B15 and B16 are within 1.5-fold of each other in Kd: 253 nM for the first, 197 nM for the second.

First: B17
Second: B18
The Kd of the first is 2.3-fold lower: 107 nM for the first, 247 nM for the second. The first binds more tightly here.

Going from B19 to B20, the Kd rises from 326 nM to 2290 nM (7-fold).

B21 and B22 are within 1.5-fold of each other in Kd: 138 nM for the first, 162 nM for the second.

B23 and B24 are within 1.5-fold of each other in Kd: 280 nM for the first, 236 nM for the second.

First: B25
Second: B26
The Kd of the first is 1.9-fold higher: 252 nM for the first, 131 nM for the second.

Going from B27 to B28, the Kd rises from 167 nM to 266 nM (1.6-fold). The first binds more tightly here.

With B29 the Kd was 521 nM.
